Experimental data as given in the DeepSol protein solubility set.

experiment: soluble on expression in E. coli; label from the status in PepcDB or PDB records

Row | Sequence | soluble on expression in E. coli
1 | MNLTNYHSHTLYCDGRAGMEDFIRFAISRGFTSYGISSHAPLPFPTHWTMEWDRMDDYLDEFTRMKEKYASEIELAVGLEIDYLNEDSNPSVRRFQELPLDYRIGSVHLLYNDRDEVVDIDVCAEVFRDIVDQHFGGDLDRVIHLYYDRLLRMVELGGFDILGHADKMHHNAACYRPGLLDESWYDALIHDYFSAVAAKGYIVEINTKALHHLNTFFPNERYFPLLKELGVRVQVNSDSHYPERINSGRPEALAALQKAGFETVTEWHGGKWIEMPLLEHHHHHH | soluble
2 | MNMPKRYSEMTPHELREEIGALKEQAVKAEQLGIVNEFDVLMRKMAMARAYMTDINKFHIGETYELVEEPGVLFKITYFNGVFAWGYKQNDNEEIGIPISLLQEK | not soluble
3 | MNNASGGTHSKGTATTGGTTTQAAKTNLTTTAAKGRTATPSLDEETRKRLMVEGKCFHCFKPGHISPNYLEKQIKQLKVLEQPVPEEQGVSENN | not soluble
4 | MNNIQTNTRDQDSLEYILQLELDNIRLFLELLEHERNLLAAGNLDDLALLVADKDRLIDQFARLDMRRNRFLNAAGLPEGTQGMNAWVSGSDEESTVARDWEELLGLADLAKQLNQTNAVITSSWLQYTRRTLNALHSAAGRPPLYNTKGQTT | not soluble
5 | MNNKKINFGCCNWTRDAMKWRQRFEAADVTWVSRTNNGPADLLAKHRLPDNCSFQYHYYVPPFIVSALHCNHS | soluble
6 | MNNQKQQKPTLSGQRFKTRKRDEKERFDPTQFQDCIIQGLTETGTDLEAVAKFLDASGAKLDYRRYAETLFDILVAGGMLAPGGTLADDMMRTDVCVFAAQEDLETMQAFAQVFNKLIRRYKYLEKGFEDEVKKLLLFLKGFSESERNKLAMLTGVLLANGTLNASILNSLYNENLVKEGVSAAFAVKLFKSWINEKDINAVAASLRKVSMDNRLMELFPANKQSVEHFTKYFTEAGLKELSEYVRNQQTIGARKELQKELQEQMSRGDPFKDIILYVKEEMKKNNIHFMKAFQKIVVLFYKAEVLSEEPILKWYKDAHVAKGKSVFLEQMKKFVEWLKNAEEESESEAEEGD | not soluble
7 | MNNSKTNQQMNTSMGYPLTVYDECNKFQLIVPTLDANIMLWCIGQLSLLNDSNGCKHLFWQPNDKSNVRILLNNYDYGHLFKYLQCQRKCSVYIGEGTLKKYNLTISTSFDNFLDLTPSEEKESLCREDAHEDPVSPKAGSEEEISPNSTSNVVVSRECLDNFMKQLLKLEESLNKLELEQKVTNKEPNHRISGTIDIPEDRSELVNFFTELKTVKQLEDVFQRYHDYERLSQECDSKTEIASDHSKKETKIEVEPPNERSLQITMNQRDNSLYFQLFNNTNSVLAGNCKLKFTDAGDKPTTQIIDMGPHEIGIKEYKEYRYFPYALDLEAGSTIEIENQYGEVIFLGKYGSSPMINLRPPSRLSAESLQASQEPFYSFQIDTLPELDDSSIISTSISLSYDGDDNEKALTWEEL | soluble
8 | MNNTDPTSFESILAGVAKLRKEKSGADTTGSQSLEIDASKLQQQEPQTSRRINSNQVINAFNQQKPEEWTDSKATDDYNRKRPFRSTRPGKTVLVNTTQKENPLLNHLKSTNWRYVSSTGINMIYYDYLVRGRSVLFLTLTYHKLYVDYISRRMQPLSRNENNILIFIVDDNNSEDTLNDITKLCMFNGFTLLLAFNFEQAAKYIEYLNL | soluble
9 | MNPALESLLADADLCVKCGLCSPHCPTYRQTADENESPRGRIALIQGWATGRLSLTAALRGPLDDCLLCRNCEAVCPAKVPYSRLVDRFRAETGQRRKPLEHHHHHH | not soluble
10 | MNPEEQIVTWLISLGVLESPKKTICDPEEFLKSSLKNGVVLCKLINRLMPGSVEKFCLDPQTEADCINNINDFLKGCATLQVEIFDPDDLYSGVNFSKVLSTLLAVNKATEDQLSERPCGRSSSLSAANTSQTNPQGAVSSTVSGLQRQSKTVEMTENGSHQLIVKARFNFKQTNEDELSVCKGDIIYVTRVEEGGWWEGTLNGRTGWFPSNYVREIKSSERPLSPKAVKGFETAPLTKNYYTVVLQNILDTEKEYAKELQSLLVTYLRPLQSNNNLSTVEVTSLLGNFEEVCTFQQTLCQALEECSKFPENQHKVGGCLLSLMPHFKSMYLAYCANHPSAVNVLTQHSDELEQFMENQGASSPGILILTTNLSKPFMRLEKYVTLLQELERHMEDTHPDHQDILKAIVAFKTLMGQCQDLRKRKQLELQILSEPIQAWEGEDIKNLGNVIFMSQVMVQYGACEEKEERYLMLFSNVLIMLSASPRMSGFIYQGKIPIAGTVVTRLDEIEGNDCTFEITGNTVERIVVHCNNNQDFQEWLEQLNRLIRGPASCSSLSKTSSSSCSAHSSFSSTGQPRGPLEPPQIIKPWSLSCLRPAPPLRPSAALGYKERMSYILKESSKSPKTMKKFLHKRKTERKPSEEEYVIRKSTAALEEDAQILKVIEAYCTSANFQQGHGSSTRKDSIPQVLLPEEEKLIIEETRSNGQTIMEEKSLVDTVYALKDEVRELKQENKRMKQCLEEELKSRRDLEKLVRRLLKQTDECIRGESSSKTSILP | soluble
11 | MNPLFFLASPFLYLTYLIYYPNKGSFVSKPRNLQKMSSEPFKNVYLLPQTNQLLGLYTIIRNKNTTRPDFIFYSDRIIRLLVEEGLNHLPVQKQIVETDTNENFEGVSFMGKICGVSIVRAGESMEQGLRDCCRSVRIGKILIQRDEETALPKLFYEKLPEDISERYVFLLDPMLATGGSAIMATEVLIKRGVKPERIYFLNLICSKEGIEKYHAAFPEVRIVTGALDRGLDENKYLVPGLGDFGDRYYCV | not soluble
12 | MNPLHLETLLAIIDEGSFEDAAFALGISPSAVSQRIKALERETGRVVVRRTSPVTATDAGEVLVQSARRMALLQAETNAQLRGRIERIPLSVAVNADSLATWFRRVMASVAEMDNATLHMRIEDESHSLSLLRRGDVLGAVTGEKTPVSGCDSIALGAFRYFAVASPKLLDRYTIDGAVDWERMPVLRFGPRDGLQDRDIKRRLGEVPAGRRVNEIPSSEAFMEAARVGLGWAMLPDIQALPLLDSGEVVMLDSEVHEVPLYWQRWRLESPALERLTQAVVDAALEGLHPLSA | not soluble
13 | MNPLLFNDRTLKGSGVLARVTPTGTQYVASVVAAAFSSHFADIKPPKERKDHQLTTISTVTLRRLMLETLQLDKQLVTTTTSDGLLRITVQNISVSSSAVLSGELREIKLQDNVTFRTANLRIDTAIRIMKNAGGNPALKMESCKIVTQGIKLVTKPMDPRNGKSLADAIANDANTMFSDLICSKIDHIVSNRVNQRFALLSSRISLEDSKNFDIVKIIMQAEERLKRLVRQNMLRSNKTIRRNVHAHNARRVSRDPVRGKRQADEDKFHLILNSFNFSRADSLMLDYSMLSPPSLTSRGIELQTSGEVFQKGHVTPFGAGPIFLPRIPNPSQMLQIVVSDFVPNSLMFHGHRIKLFDTRIDWMTPQFGPVMRTTCDLSTGSLFCIGDLFPALREMLPDRNVAFLFTTLRAPAVIMQPEEKGGIHFSLRGLIRLVSDRNEPIGEMEIRIEALMKMKLTSKSVKGKVTIEEIQFTSRSPRILLQEELDDAGFLSREILQRMVNDILRQGIPIPIHPLFKLVKPKLTLLSRSMLLETNFLLNEHIIAQLTAEALVA | not soluble
14 | MNPSMKQKQEEIKENIKNSSVPRRTLKMIQPSASGSLVGRENELSAGLSKRKHRNDHLTSTTSSPGVIVPESSENKNLGGVTQESFDLMIKENPSSQYWKEVAEKRRKALYEALKENEKLHKEIEQKDNEIARLKKENKELAEVAEHVQYMAELIERLNGEPLDNFESLDNQEFDSEEETVEDSLVEDSEIGTCAEGTVSSSTDAKPCI | soluble
15 | MNPVKNRSEVLFIYDVKWANPNGDPLDENRPRFDEETSRLFVTDVRLKRTVRDYLAECYDETLWVTGEAVVPEDRVKELGIKDVNDACQKCIDIRLFGAVIPQSKKGAMESSITGPVQFRYGTSLHRVKLMTIQGTAAFATENSKQRSFREDQVVPYALIAFYGVINQNSAKFTGLTEEDVSKLLEGIWMGTKNLITRSKMEHNPRLLMRVVYKEGVNYHSGELDYLVKVVSEKEDEEIRDISELKLDVTELKQVLESLKDKIERIEYSVDNRLKLAENGEEKPFEEIFGGFQLVKLEW | not soluble
16 | MNQIAIQETIQRLINQQVVPGVAWGTITEDSLSEQYTGFLGNTGPFARQKISSASLYDLASLTKVIGTTNRMLQLIDTNQLTFSTTVGEILPDYQGLSCSIGELLLHQSGLPADVVDKKNVTKKSLQEIILTHSLSERGKTTYSDLGYYLLGEIIQVLDRCSLEESFQTYVFQPMNLQHTSFTVSDFAQAVPTEITKQRGVIQGVVHDSKAYQLKAPIGSAGLFATLPDLLTFVQCFMNNRYPSGKPLFSEKMFTALWSMNQGGRTFGWEVKKTQAGADYLYHTGFTGTAIGMKKETKEALILLTNRIHPTREERGFLKARTKIYQQYF | not soluble
17 | MNRGLDPMHVGNARYVKNDDLPKTVPVFPLPGALLLPEGHLPLNIFEPRYLAMIDTALASHRLIGMVQPALHVIEAGIEGGPLSAVGCLGRITSFSETGDGRYVISLTGVCRFRLLEEVAGSEPYRSFRHAPFGADLSGEYDEEAVDRENLLRVFRAFLDANQLEADWESVERAGNRVLVNSLSMMSPFGPAEKQALLEAPDLKTRAETLIAITEIVLAQGSGEGGTVLQLEHHHHHH | not soluble
18 | MNRILSMIEQMEPGVVIFNDDLTISSVSSMVFMIFGHIPRERIFAGDLLDIHDEAAREKVKETLRLARQAQRHIPLSLKFITSEGHDRYLLVKLITVAERDPASEKICALFYDITPFIVAERKLTRVPVTSRGDIHLLRPEEIVYLKADNIYSLIYTEAGEFHSDLSLGAMEKRLSEDIFYRIHRSYLVNLAKVRKVHRESSECTVAAGGGEVRLPVSRDKMQRFLTDLGLK | not soluble
19 | MNSAWALLRLASPQLPIGGYSYSQGLEMAVEQSIVIDPQTAGRWIGDQLLLNLARFEAPLLLAHCEAAAVGDWGQLLQVSEQHRASRETRELHQESRQMGYSLQQLLNGLPELDRDARRFLEQTTEPHLALGWALAARTWRISPQDALAAWLWSWLENQLAVLMKTLPLGQQAAQRLTSELLPLLQQAQVNASAQDTHPAGSAAFGLALASMAHERQYSRLFRS | soluble
20 | MNSEIELPVQKQLEAYNARDIDAFMAWWADDCQYYAFPATLLAGNAAEIRVRHIERFKEPDLYGELLTRVIVGNVVIDHETVTRNFPEGKGEVDVACIYEVENGRIAKAWFKIGEPRIVSQKS | soluble
21 | MNSLVRRSAQQLSLWRTYCIKHNASEAASPGRNAGRPNYEEFIGRHQRQAQCSIVVQVSSEKSYEELYNYCSSFGSIMGAHHYCVRQDETLHYILLEYATSDEAAAAIGAGVTNGELSGVPVRSPFLWFRAAGGGRRSPKLVANTAPALLSLDGTRQVDQRHLLGLLRGAADIEEQVQQLYEHTRLNELGIRMRFLAALQVQQAIAGMFPAAQAQPFGSSVNGFGRMGCDLDLILRFDSDMGAKIPLEAAVPSRLVYHTKENLSNGRSQTQRHMECFGDMLHLFLPGVCHVRRILQARVPIIKYHHEHLDLEVDLSMSNLTGFYMSELLYMFGEMDPRVRPLTFTIRRWAQTCGLTNPSPGRWISNFSLTCLVMFFLQQLRQPILPTIGALAKAAEPGDSRVTEDGINCTFTRNVDRLGFRSRNQSSLSELLLQFFEFYSQFDFHNRAISLNEGKPLSKPDHSAMYIVNPLEQLLNVSKNVSLEECERLRIEVRNAAWVLESEVENASVPEGDGQELSCGLLNLFKHPEKAVIRPNMFFKPRMVEVSDLFEQKEAGATSSSTPPTPAITYKSASVRQQVQSIKAATRSELKQLRGSGSSVPTSSPNNRRRS | not soluble
